This passage reports stoichiometry N results from PMC6044645.

A word on the stoichiometry N: it is a count of units in the complex or per binding partner.

This experiment has as its target Class I polyhydroxyalkanoate synthase (PhaC) from Rhodovulum sulfidophilum (Rhodovulum sulfidophilum). Briefly: SEC.

As for “Class I polyhydroxyalkanoate synthase (PhaC) from Rhodovulum sulfidophilum (from UniProt A0ABS1RUN8 1-567) (enzyme)”, the stoichiometry N turned out to be 2.
